Changes are numbered by the printed parent chain. Numbers in names are those of the source.
Test system: engineered chimeric receptor SEQ ID NO: 33 and its mutants (human α7-nAChR ligand binding domain / human GlyRα1 ion pore domain) in Lenti-X 293T cells
Experiment: YFP fluorescence quenching anion reporter plate reader assay (percent quench, EC50)
Type: cell-based
Conditions: for YFP fluorescence quenching using CNL001 (percent quench): receptor named in row; for YFP fluorescence quenching using Facinicline, 30 nM fac: ligand Facinicline 30 nM; for YFP fluorescence quenching using Facinicline, 300 nM fac: ligand Facinicline 300 nM; for YFP fluorescence quenching using Facinicline, 10 uM fac: ligand Facinicline 10 uM; for YFP fluorescence quenching using Facinicline, 30 uM fac: ligand Facinicline 30 uM; for YFP fluorescence quenching using TC-6987, 1 uM tc6987: ligand TC-6987 1 uM; for YFP fluorescence quenching using TC-6987, 10 uM tc6987: ligand TC-6987 10 uM; for YFP fluorescence quenching using TC-6987, 500 uM tc6987: ligand TC-6987 500 uM; for YFP fluorescence quenching using Varenicline, 3 nM var: ligand Varenicline 3 nM; for YFP fluorescence quenching using Varenicline, 30 nM var: ligand Varenicline 30 nM; for YFP fluorescence quenching using Varenicline, 300 nM var: ligand Varenicline 300 nM; for YFP fluorescence quenching using Varenicline, 500 nM var: ligand Varenicline 500 nM; for YFP fluorescence quenching using Varenicline, 1 uM var: ligand Varenicline 1 uM
How it was run: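 Lenti-X 293T cells co-expressing an anion-quenchable YFP were transiently transfected with receptor DNA, then ligand was added in NaI-substituted buffer (pH 7.2) after 30 min at 37 °C. Fluorescence was read about 2 min; percent quench = mean of last 10 s over 15 s pre-ligand baseline.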

[1] = 1 nM CNL001, first column so headed
[2] = 1 nM CNL001, second column so headed
[3] = 1 nM brd (TC-5619/Bradanicline)
[4] = 3 nM brd (TC-5619/Bradanicline)
[5] = 10 nM CNL001, first column so headed
[6] = 10 nM CNL001, second column so headed
[7] = 10 nM brd (TC-5619/Bradanicline)
[8] = 30 nM brd (TC-5619/Bradanicline)
[9] = 50 nM CNL001, first column so headed
[10] = 50 nM CNL001, second column so headed
[11] = 100 nM CNL001, first column so headed
[12] = 100 nM CNL001, second column so headed
[13] = 100 nM brd (TC-5619/Bradanicline)
[14] = 300 nM brd (TC-5619/Bradanicline)
[15] = 1 uM CNL001, first column so headed
[16] = 1 uM CNL001, second column so headed
[17] = 1 uM brd (TC-5619/Bradanicline)

B1: CODA330: engineered receptor: L131F in SEQ ID NO: 33 (protein)
chain: MRCSPGGVWLALAASLLHVSLQGEFQRKLYKELVKNYNPLERPVANDSQPLTVYFSLSLLQIMDVDEKNQVLTTNIWLQMSWTDHYLQWNVSEYPGVKTVRFPDGQIWKPDILLYNSADERFDATFHTNVFVNSSGHCQYLPPGIFKSSCPMDLKNFPMDVQTCKLKFGSWSYGGWSLDLQMQEADISGYIPNGEWDLVGIPGKRSERFYECCKEPYPDVTFTVTMRRRMGYYLIQMYIPSLLIVILSWISFWINMDAAPARVGLGITTVLTMTTQSSGSRASLPKVSYVKAIDIWMAVCLLFVFSALLEYAAVNFVSRQHKELLRFRRKRRHHKSPMLNLFQEDEAGEGRFNFSAYGMGPACLQAKDGISVKGANNSNTTNPPPAPSKSPEEMRKLFIQRAKKIDKISRIGFPMAFLIFNMFYWIIYKIVRREDVHNQ
modifications: synthetic sequence of chimeric LGIC
- YFP fluorescence quenching using CNL001 (percent quench) [1]: 76.289%
- YFP fluorescence quenching using CNL001 (percent quench) [2]: 78.896%
- YFP fluorescence quenching using TC-5619/Bradanicline (percent quench) [3]: −12.4%
- YFP fluorescence quenching using TC-5619/Bradanicline (percent quench) [4]: 25.12%
- YFP fluorescence quenching using CNL001 (percent quench) [5]: 79.339%
- YFP fluorescence quenching using CNL001 (percent quench) [6]: 80.245%
- YFP fluorescence quenching using TC-5619/Bradanicline (percent quench) [7]: 72.19%
- YFP fluorescence quenching using TC-6683 (percent quench) (30 nM TC-6683): −22.26%
- YFP fluorescence quenching using TC-5619/Bradanicline (percent quench) [8]: 76.35%
- YFP fluorescence quenching using CNL001 (percent quench) [9]: 80.831%
- YFP fluorescence quenching using CNL001 (percent quench) [10]: 80.605%
- YFP fluorescence quenching using ABT-126 (percent quench) (50 nM abt (ABT-126)): −16.22%
- YFP fluorescence quenching using CNL001 (percent quench) [11]: 81%
- YFP fluorescence quenching using CNL001 (percent quench) [12]: 80.663%
- YFP fluorescence quenching (percent quench) (100 nM CNL002): −3.76%
- YFP fluorescence quenching using ABT-126 (percent quench) (100 nM abt (ABT-126)): −11.89%
- YFP fluorescence quenching using AZD-0328 (percent quench) (100 nM azd0328): 27.56%
- YFP fluorescence quenching using TC-5619/Bradanicline (percent quench) [13]: 78.94%
- YFP fluorescence quenching using TC-6683 (percent quench) (300 nM TC-6683): −18.89%
- YFP fluorescence quenching using ABT-126 (percent quench) (300 nM abt (ABT-126)): 39.23%
- YFP fluorescence quenching using AZD-0328 (percent quench) (300 nM azd0328): 73.35%
- YFP fluorescence quenching using TC-5619/Bradanicline (percent quench) [14]: 77.06%
- YFP fluorescence quenching using CNL001 (percent quench) [15]: 81.293%
- YFP fluorescence quenching using CNL001 (percent quench) [16]: 81.428%
- YFP fluorescence quenching (percent quench) (1 uM CNL002): 68.51%
- YFP fluorescence quenching using ABT-126 (percent quench) (1 uM abt (ABT-126)): 66.5%
- YFP fluorescence quenching using TC-5619/Bradanicline (percent quench) [17]: 78.61%
- YFP fluorescence quenching using TC-6683 (percent quench) (3 uM TC-6683): −9.45%
- YFP fluorescence quenching (percent quench) (10 uM ach (acetylcholine)): 11.07%
- YFP fluorescence quenching (percent quench) (30 uM CNL002): 77.77%
- YFP fluorescence quenching using TC-6683 (percent quench) (30 uM TC-6683): −9.23%
- YFP fluorescence quenching using AZD-0328 (percent quench) (30 uM azd0328): 77.14%
- YFP fluorescence quenching using TC-6683 (percent quench) (100 uM TC-6683): −10.75%
- YFP fluorescence quenching (percent quench) (100 uM ach (acetylcholine)): 43.34%
- YFP fluorescence quenching (percent quench) (1 mM ach (acetylcholine)): 77.52%
- YFP fluorescence quenching (percent quench) (3 mM ach (acetylcholine)): 74.89%
- YFP fluorescence quenching using Facinicline, 30 nM fac: 2.9
- YFP fluorescence quenching using Facinicline, 300 nM fac: 74.96
- YFP fluorescence quenching using Facinicline, 10 uM fac: 81.97
- YFP fluorescence quenching using Facinicline, 30 uM fac: 78.31
- YFP fluorescence quenching using TC-6987, 1 uM tc6987: 53.37
- YFP fluorescence quenching using TC-6987, 10 uM tc6987: 74.23
- YFP fluorescence quenching using TC-6987, 500 uM tc6987: 72.25
- YFP fluorescence quenching using Varenicline, 3 nM var (first column): −3.016
- YFP fluorescence quenching using Varenicline, 3 nM var (second column): −1.452
- YFP fluorescence quenching using Varenicline, 30 nM var (first column): −0.193
- YFP fluorescence quenching using Varenicline, 30 nM var (second column): −1.853
- YFP fluorescence quenching using Varenicline, 300 nM var (first column): 6.915
- YFP fluorescence quenching using Varenicline, 300 nM var (second column): 6.513
- YFP fluorescence quenching using Varenicline, 500 nM var (first column): 27.593
- YFP fluorescence quenching using Varenicline, 500 nM var (second column): 29.863
- YFP fluorescence quenching using Varenicline, 1 uM var (first column): 67.499
- YFP fluorescence quenching using Varenicline, 1 uM var (second column): 65.57

B2: CODA333: engineered receptor: L131S in SEQ ID NO: 33 (protein)
chain: B1 chain with F131S
modifications: synthetic sequence of chimeric LGIC
- YFP fluorescence quenching using CNL001 (percent quench) [1]: 76.165%
- YFP fluorescence quenching using CNL001 (percent quench) [2]: 78.463%
- YFP fluorescence quenching using TC-5619/Bradanicline (percent quench) [3]: −0.85%
- YFP fluorescence quenching using TC-5619/Bradanicline (percent quench) [4]: −2.05%
- YFP fluorescence quenching using CNL001 (percent quench) [5]: 79.349%
- YFP fluorescence quenching using CNL001 (percent quench) [6]: 78.238%
- YFP fluorescence quenching using TC-5619/Bradanicline (percent quench) [7]: −2.8%
- YFP fluorescence quenching using TC-6683 (percent quench) (30 nM TC-6683): −23.88%
- YFP fluorescence quenching using TC-5619/Bradanicline (percent quench) [8]: −2.07%
- YFP fluorescence quenching using CNL001 (percent quench) [9]: 80.221%
- YFP fluorescence quenching using CNL001 (percent quench) [10]: 81.789%
- YFP fluorescence quenching using ABT-126 (percent quench) (50 nM abt (ABT-126)): −20.99%
- YFP fluorescence quenching using CNL001 (percent quench) [11]: 81.855%
- YFP fluorescence quenching using CNL001 (percent quench) [12]: 80.766%
- YFP fluorescence quenching (percent quench) (100 nM CNL002): −15.44%
- YFP fluorescence quenching using ABT-126 (percent quench) (100 nM abt (ABT-126)): −16.21%
- YFP fluorescence quenching using AZD-0328 (percent quench) (100 nM azd0328): 38.49%
- YFP fluorescence quenching using TC-5619/Bradanicline (percent quench) [13]: 30.34%
- YFP fluorescence quenching using TC-6683 (percent quench) (300 nM TC-6683): −21.46%
- YFP fluorescence quenching using ABT-126 (percent quench) (300 nM abt (ABT-126)): −13.34%
- YFP fluorescence quenching using AZD-0328 (percent quench) (300 nM azd0328): 67.13%
- YFP fluorescence quenching using TC-5619/Bradanicline (percent quench) [14]: 50.56%
- YFP fluorescence quenching using CNL001 (percent quench) [15]: 81.707%
- YFP fluorescence quenching using CNL001 (percent quench) [16]: 82.665%
- YFP fluorescence quenching (percent quench) (1 uM CNL002): 15.21%
- YFP fluorescence quenching using ABT-126 (percent quench) (1 uM abt (ABT-126)): 4.96%
- YFP fluorescence quenching using TC-5619/Bradanicline (percent quench) [17]: 72.42%
- YFP fluorescence quenching using TC-6683 (percent quench) (3 uM TC-6683): −21.07%
- YFP fluorescence quenching (percent quench) (10 uM ach (acetylcholine)): −10.11%
- YFP fluorescence quenching using TC-6683 (percent quench) (30 uM TC-6683): −16.15%
- YFP fluorescence quenching using AZD-0328 (percent quench) (30 uM azd0328): 80.61%
- YFP fluorescence quenching using TC-6683 (percent quench) (100 uM TC-6683): −18.96%
- YFP fluorescence quenching (percent quench) (100 uM ach (acetylcholine)): −10.05%
- YFP fluorescence quenching (percent quench) (1 mM ach (acetylcholine)): 32.11%
- YFP fluorescence quenching (percent quench) (3 mM ach (acetylcholine)): 57.37%
- YFP fluorescence quenching using Facinicline, 30 nM fac: 6.27
- YFP fluorescence quenching using Facinicline, 300 nM fac: 69.8
- YFP fluorescence quenching using Facinicline, 10 uM fac: 80.07
- YFP fluorescence quenching using Facinicline, 30 uM fac: 81.35
- YFP fluorescence quenching using TC-6987, 1 uM tc6987: −3.87
- YFP fluorescence quenching using TC-6987, 3 uM tc6987 (ligand TC-6987 3 uM): −20.2
- YFP fluorescence quenching using TC-6987, 5 uM tc6987 (ligand TC-6987 5 uM): −15.25
- YFP fluorescence quenching using TC-6987, 10 uM tc6987: 4.92
- YFP fluorescence quenching using TC-6987, 30 uM tc6987 (ligand TC-6987 30 uM): 14.75
- YFP fluorescence quenching using TC-6987, 50 uM tc6987 (ligand TC-6987 50 uM): 21.33
- YFP fluorescence quenching using TC-6987, 100 uM tc6987 (ligand TC-6987 100 uM): 29.7
- YFP fluorescence quenching using TC-6987, 300 uM tc6987 (ligand TC-6987 300 uM): 20.79
- YFP fluorescence quenching using TC-6987, 500 uM tc6987: 44.37
- YFP fluorescence quenching using Varenicline, 3 nM var (first column): −4.782
- YFP fluorescence quenching using Varenicline, 3 nM var (second column): 1.048
- YFP fluorescence quenching using Varenicline, 30 nM var (first column): 2.084
- YFP fluorescence quenching using Varenicline, 30 nM var (second column): 5.022
- YFP fluorescence quenching using Varenicline, 300 nM var (first column): 12.162
- YFP fluorescence quenching using Varenicline, 300 nM var (second column): 12.979
- YFP fluorescence quenching using Varenicline, 500 nM var (first column): 29.238
- YFP fluorescence quenching using Varenicline, 500 nM var (second column): 25.614
- YFP fluorescence quenching using Varenicline, 1 uM var (first column): 43.863
- YFP fluorescence quenching using Varenicline, 1 uM var (second column): 39.346
